# According to the RNAGym collection of RNA variant scans (doi:10.7554/elife.80360):
# B1: Twister Ribozyme (parent)
# chain: AACACUGCCAAUGCCGGUCCCAAGCCCGGAUAAAAGUGGAGGGGGCGG
# Variants of: B1
# Experiment: self-cleavage, relative activity (ratio to wild type); higher = more cleavage; co-transcriptional
row,Variant,self-cleavage
1,A11U A23G,0.755
2,U12G G47U,0.703
3,U12G G47A,0.772
4,U12G A34C,0.287
5,A11U G41U,0.889
6,U12G C20A,0.314
7,G13A C15A,0.46
8,G13A C20A,0.09
9,G13A C20U,0.262
10,G13A C20G,0.115
11,A11G G43U,0.374
12,G13A G45C,0.229
13,A11U U12G,1.05
14,G13C A23G,0.139
15,G13C A23C,0.0801
16,G13A G41A,0.157
17,G13A G41U,0.131
18,G13A G41C,0.17
19,U12C G43A,0.243
20,U12C G43U,0.485
21,U12A G38A,1.08
22,U12A G38C,1.11
23,U12C C46U,0.957
24,A11U G29A,1.02

row,Variant,self-cleavage
1,U12C G39A,0.609
2,U12C G39C,0.127
3,U12C G39U,0.222
4,U12G C26A,0.589
5,A11G U37A,0.587
6,A11U C46A,0.93
7,A11G U12G,0.743
8,A11G U12A,0.942
9,G13A A34G,0.635
10,G13A A34C,0.173
11,G13A G47U,0.446
12,G13A U37G,0.233
13,G13A U37C,0.183
14,G13A U37A,0.209
15,U12C A23G,0.486
16,A11U U31C,1.04
17,A11U G28C,0.801
18,U12A G41A,0.696
19,U12A G41C,0.264
20,U12G C27G,0.136
21,U12G C27A,0.373
22,U12G C27U,0.496
23,A11G C27A,0.449
24,A11G C27U,0.405

row,Variant,self-cleavage
1,U12A C46G,1.12
2,U12A C46A,1.09
3,U12G G48A,0.593
4,U12G G48C,0.929
5,A11U G38U,0.875
6,A11U G38A,1.16
7,G13A G16C,0.106
8,G13A G16A,0.352
9,A11U C19U,0.933
10,A11U C19G,0.616
11,A11U C19A,0.386
12,A11U G44U,1.07
13,A11U G44C,0.969
14,U12C G16U,0.799
15,U12C G16A,0.938
16,U12C A35C,1.08
17,U12C G47U,0.944
18,U12C G47C,0.497
19,U12C G29A,0.988
20,U12C C26A,0.658
21,U12C C26U,0.333
22,G13A A23G,0.0799
23,G13A A23U,0.0933
24,U12C G13U,0.659

row,Variant,self-cleavage
1,U12C G13C,0.453
2,U12C G13A,0.772
3,U12A G43U,0.477
4,U12A G43A,0.298
5,U12C G17A,0.532
6,U12G G17U,0.239
7,G13C A40C,0.0965
8,U12C C20G,0.103
9,U12A G16A,1.03
10,U12A G16U,1.09
11,U12A G17A,0.85
12,U12A G17U,0.41
13,G13A C21A,0.0879
14,U12G U37A,0.576
15,A11U C26A,0.674
16,A11U C26G,0.31
17,U12C G38A,0.929
18,U12C G38C,0.951
19,U12G G28A,0.799
20,U12G G28U,0.464
21,G13A G43C,0.167
22,G13A G43U,0.182
23,G13A A22G,0.107
24,U12G G45A,0.583

row,Variant,self-cleavage
1,U12C C21G,0.0654
2,U12C C21U,0.0795
3,U12G G16U,0.937
4,U12G G16A,0.864
5,U12A C26G,0.446
6,A11G C26A,0.187
7,U12G C25G,0.486
8,U12G G38C,0.881
9,U12G G38U,0.76
10,A11U C15U,1
11,G13C A35U,0.629
12,G13C A35G,0.139
13,G13C A35C,0.403
14,U12C G45U,0.973
15,U12C G45C,0.584
16,U12C A33U,1.01
17,U12C A33G,1
18,U12C A33C,0.876
19,A11G G42C,0.455
20,A11G G42A,0.441
21,A11G G42U,0.411
22,G13A C46G,0.848
23,G13A C46A,0.715
24,G13C A30U,0.612

row,Variant,self-cleavage
1,G13C A30C,0.518
2,U12G A30G,0.783
3,U12G A30U,0.812
4,A11U G39A,0.63
5,A11G C46G,0.938
6,A11G C46A,0.808
7,A11G G47C,0.528
8,A11G G47U,0.861
9,U12C C14G,0.0887
10,U12C C14A,0.818
11,A11G G41U,0.65
12,A11G G41A,0.505
13,A11U A40G,0.0881
14,U12A G28A,0.912
15,U12A A30U,1.15
16,U12A A30C,0.893
17,A11G G16U,0.875
18,A11G G16C,0.406
19,A11U A30G,1.11
20,A11U A30U,1.01
21,U12A A34U,0.984
22,U12A A34G,1.02
23,G13A G39U,0.171
24,G13A G39A,0.202

row,Variant,self-cleavage
1,U12G G36C,0.475
2,U12G G36U,0.397
3,U12G G36A,0.64
4,G13C C25A,0.0747
5,U12A G45U,1.02
6,G13A C14U,0.8
7,G13A C14G,0.551
8,U12C A32G,1.24
9,U12C A32U,0.835
10,U12C A32C,0.982
11,U12A G44C,1.19
12,U12A G44A,1.04
13,U12A G44U,1.05
14,U12C A22C,0.861
15,U12C A22U,0.805
16,A11G G39U,0.224
17,A11U G36A,0.559
18,U12G A35G,0.815
19,G13A C26U,0.142
20,G13C A22G,0.103
21,G13C A22U,0.16
22,U12A C20U,1.15
23,A11U A32C,0.926
24,U12G A33U,0.868

row,Variant,self-cleavage
1,U12G A33G,0.809
2,A11G U18G,0.0264
3,A11U A34C,0.365
4,U12G A40G,0.163
5,A11G G48U,0.942
6,U12A A32U,1.1
7,U12A A23U,0.767
8,G13A A40C,0.224
9,G13A A40U,0.209
10,U12C G24C,0.0606
11,U12C G24U,0.168
12,U12G,0.946
13,U12A,1.11
14,U12C,0.961
15,U12C G48C,1.18
16,U12C G48A,0.952
17,U12C G48U,1.03
18,U12C G36C,0.559
19,U12C G36U,0.543
20,U12C C27A,0.577
21,U12C C27G,0.0656
22,A11U C20U,1.08
23,A11U C20G,0.17
24,U12A C15U,1.1

row,Variant,self-cleavage
1,A11U G24C,0.0932
2,U12A A33C,1.04
3,U12A A33G,0.969
4,U12C G28A,0.829
5,U12C G28C,0.814
6,A11G G36A,0.458
7,A11G G36C,0.0984
8,U12A A35G,1.06
9,U12A A35C,1.09
10,U12C U18C,0.564
11,U12C U18A,0.474
12,G13A U31A,1.02
13,G13C A33C,0.236
14,U12A G29C,0.949
15,U12A G48U,1.18
16,U12A G48A,0.991
17,U12A G48C,1.22
18,U12A C25U,0.947
19,U12A C25A,0.15
20,A11U G13A,0.95
21,A11U G13U,0.694
22,A11G G44U,0.876
23,A11G G44A,0.778
24,G13C C14U,0.408

row,Variant,self-cleavage
1,G13C C14G,0.334
2,A11G G45U,0.567
3,A11G G45A,0.811
4,U12A G24A,0.103
5,A11U G47C,0.624
6,A11U G47U,0.98
7,A11U U18C,0.617
8,A11U U18A,1
9,U12G A23G,0.502
10,G13A G48A,0.659
11,G13C A32C,0.159
12,G13C A32G,0.255
13,A11U C25G,0.501
14,G13A A32G,0.882
15,G13A A32U,0.961
16,U12G G29A,0.622
17,U12G G29C,0.677
18,U12A C21A,0.152
19,G13A G28U,0.623
20,G13A G28A,0.579
21,G13A G28C,0.581
22,G13A G42A,0.186
23,G13C C15U,0.0748
24,U12C G44U,0.902

row,Variant,self-cleavage
1,U12C G44A,0.852
2,U12G C14G,0.124
3,U12G C14A,0.726
4,U12G C14U,0.756
5,G13C C26A,0.0939
6,G13C C26U,0.0884
7,U12A C14U,1.05
8,U12A G39C,0.127
9,U12A G39U,0.242
10,U12A G39A,0.677
11,U12A G13U,0.577
12,A11U C21U,0.0941
13,U12C A34U,0.886
14,U12C A34G,0.821
15,G13A C19G,0.123
16,U12A U18G,0.106
17,G13A G36C,0.118
18,U12C U37G,0.72
19,U12C U37A,0.747
20,U12C U31C,0.938
21,U12C G41U,0.614
22,U12A G47A,1.13
23,U12A G47U,1.05
24,A11G G13A,0.745

row,Variant,self-cleavage
1,A11G G13C,0.345
2,U12C G42U,0.331
3,U12C G42A,0.42
4,U12C G42C,0.486
5,A11U G45C,0.733
6,A11U G45U,0.953
7,A11U G43A,0.336
8,A11U G43U,0.606
9,U12A C19G,0.614
10,U12A C19U,0.882
11,G13A C25U,0.387
12,G13A C25A,0.0972
13,G13A C25G,0.0804
14,U12A C27G,0.138
15,A11U A33U,1.03
16,A11G G29C,0.679
17,G13A U18G,0.0757
18,G13A U18C,0.129
19,A11U,1.04
20,U12G C15A,0.614
21,U12G C15G,0.115
22,U12G G44U,0.799
23,U12G G44C,0.681
24,U12G G44A,0.784

row,Variant,self-cleavage
1,A11U A22U,0.908
2,A11G C25U,0.737
3,U12A A40U,0.192
4,U12A A40G,0.136
5,U12G G24A,0.177
6,U12G G24C,0.0924
7,U12C C25G,0.439
8,G13A G38U,0.463
9,A11U A35G,0.919
10,A11U G16U,0.544
11,G13C C20G,0.0962
12,G13C C20U,0.125
13,G13C C20A,0.0483
14,U12G G43A,0.399
15,U12A G36U,0.794
16,U12A G36A,0.924
17,U12A U37G,0.925
18,U12G A22G,0.316
19,U12A A22U,1.02
20,U12A A22G,0.396
21,G13A C27G,0.073
22,U12G G42C,0.369
23,G13A G17U,0.108
24,G13A G17C,0.0471

row,Variant,self-cleavage
1,A11G G24A,0.0843
2,A11G G24C,0.0551
3,G13C C19A,0.0574
4,A11U C14A,0.915
5,A11U C14U,1.13
6,G13A A30C,0.771
7,G13A A30U,0.899
8,U12C C15G,0.0964
9,U12C C15A,0.739
10,U12G C46G,0.757
11,U12G U18G,0.0252
12,A11G G17C,0.0792
13,A11G G17U,0.188
14,A11G G17A,0.372
15,G13A A33U,1.01
16,U12G C19A,0.601
17,U12G C19G,0.686
18,U12C A30C,0.761
19,U12C C19U,0.951
20,U12G C21U,0.0878
21,U12G C21G,0.0698
22,U12G C21A,0.0849
